# Results as given in patent publication US20020177203A1 (published 2002).
# Target: T1, mouse α2 subunit of prolyl 4-hydroxylase (mouse, UniProt Q60716 20-537)
# T1 construct: Recombinant, made in Sf9 insect cells with a baculovirus; also called α(2) subunit of mouse prolyl 4-hydroxylase; α2 polypeptide
# Assay: coexpression in insect cells; nondenaturing PAGE and Western blot
# Method: A recombinant baculovirus coding for the mouse α2 subunit was generated and used to infect S. frugiperda insect cells with or without the human PDI/β subunit, wherein the insect cells were infected at a multiplicity of 5. For production of an enzyme tetramer, the human α59 1 (see, Vuori, et al., supra) or mouse α2 viruses and the PDI/β viruses (id.) were used in a 1:1 or 2:1 ratio. The cells were harvested 72 hours after infection, homogenized in 0.01 M tris, pH 7.8/0.1 M NaCl/0.1 M glycine/10 μM dithiothreitol/0.1% Triton X-100, and centrifuged. The resulting supematants were analyzed by SDS/8% PAGE or nondenaturing 7.5% PAGE and assayed for enzyme activities.
# T1 sequence (Q60716 20-537): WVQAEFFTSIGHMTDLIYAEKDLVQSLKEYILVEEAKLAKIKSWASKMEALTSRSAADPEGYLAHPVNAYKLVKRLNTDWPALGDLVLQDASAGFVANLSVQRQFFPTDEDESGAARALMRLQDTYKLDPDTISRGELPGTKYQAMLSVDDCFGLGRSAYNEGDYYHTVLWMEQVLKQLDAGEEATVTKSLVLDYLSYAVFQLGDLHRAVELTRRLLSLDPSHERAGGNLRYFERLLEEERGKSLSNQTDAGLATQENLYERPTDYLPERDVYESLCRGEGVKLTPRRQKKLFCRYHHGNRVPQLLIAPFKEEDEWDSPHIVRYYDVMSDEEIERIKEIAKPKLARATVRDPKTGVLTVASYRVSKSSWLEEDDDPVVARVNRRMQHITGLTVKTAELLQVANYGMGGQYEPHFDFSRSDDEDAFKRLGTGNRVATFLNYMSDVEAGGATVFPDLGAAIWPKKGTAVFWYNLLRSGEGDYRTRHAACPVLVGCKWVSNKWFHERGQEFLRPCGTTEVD
binder,measurement,value
"human PDI/β subunit of prolyl 4-hydroxylase (protein disulfide-isomerase) (enzyme, Made in Sf9 insect cells with a recombinant baculovirus (Vuori et al.); also called human β subunit) not shown",binding result,binds
